Data as given in US20220119518A1 (KUMHO HT, published 2022).
Residue numbers refer to the chain shown, from its start.

T1: CEACAM1 antigen (Sino Biological, Inc.) (UniProt P13688 35-428)
T1 construct: Bought antigen, coated on the ELISA plate; construct not described; also called CEACAM1 (CD66a) antigen; CD66a
T1 sequence (looked up): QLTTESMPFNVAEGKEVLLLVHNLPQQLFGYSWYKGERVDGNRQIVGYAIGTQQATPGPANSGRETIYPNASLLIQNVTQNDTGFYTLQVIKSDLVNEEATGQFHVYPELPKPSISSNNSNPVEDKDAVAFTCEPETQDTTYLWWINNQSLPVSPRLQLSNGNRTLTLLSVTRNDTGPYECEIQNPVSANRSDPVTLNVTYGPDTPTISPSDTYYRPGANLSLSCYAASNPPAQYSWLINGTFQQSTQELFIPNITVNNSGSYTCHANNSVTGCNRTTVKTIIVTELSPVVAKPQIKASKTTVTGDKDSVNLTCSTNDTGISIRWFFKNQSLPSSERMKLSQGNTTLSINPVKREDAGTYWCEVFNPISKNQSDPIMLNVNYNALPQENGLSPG

T2: Antigen CD66c (CEACAM6; Sino Biological, Inc.) (UniProt P40199 35-320)
T2 construct: Bought antigen, coated on the ELISA plate; construct not described; also called CECACAM6 (CD66c) antigen; CD66c antigen
T2 sequence (looked up): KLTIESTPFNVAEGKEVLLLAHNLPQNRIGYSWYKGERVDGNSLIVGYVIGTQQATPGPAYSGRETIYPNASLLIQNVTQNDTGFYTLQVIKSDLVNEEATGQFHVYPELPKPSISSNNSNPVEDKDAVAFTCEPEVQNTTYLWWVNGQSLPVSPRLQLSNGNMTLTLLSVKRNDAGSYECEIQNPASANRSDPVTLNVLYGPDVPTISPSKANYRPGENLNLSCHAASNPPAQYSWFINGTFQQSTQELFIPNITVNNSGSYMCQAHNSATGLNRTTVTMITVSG

B1: recombinant humanized anti-CD66c antibody Protein ID 3058 (Vk8 + VH11) (antibody, human IgG1, V domains shown)
VH: QVQLVQSGAEVKKPGASVKISCKASGYSFTDYTMHWVKQAPGQNLEWIGLINPFGGSTSYAQKFKGRVTMTRDTSTNTAYMELSRLRSDDTAVYYCVRGDPVRHYYALAYWGQGTLVTVSS
VL: DIQMTQSPSTLSASVGDRVTITCRASENVYGTLNWYQRKPGKAPKLLIYGATNLADGMPSRFSGSGSGTEYTLTISSLQPDDFATYYCQNVLSAPYTFGGGTKLEIK
notes: also called hu 3058; #86
B2: recombinant humanized anti-CD66c antibody Protein ID 3007 (Vk7 + VH6) (antibody, human IgG1, V domains shown)
VH: QVQLVQSGAEVKKPGASMKISCKASGYSFTDYTMNWVKQAPGQNLEWIGLINPFHGGTVSNQRFKVKATLTVDVSTNTAYMELSRLRSDDTAVYYCVRGDPVRHYYALAYWGQGTLVTVSS
VL: B1 VL with R24G, M58V
notes: also called hu 3007; #43
B3: recombinant humanized anti-CD66c antibody Protein ID 3043 (Vk8 + VH6) (antibody, V domains shown)
VH: B2 VH
VL: B1 VL
notes: also called hu 3043; #71
B4: recombinant humanized anti-CD66c antibody Protein ID 2938 (Vk5 + VH7) (antibody, human IgG1, V domains shown)
VH: B2 VH with K38R, N44G
VL: B1 VL with R24G, N34A, M58V, T69R
notes: also called hu 2938
B5: anti-CD66c chimeric antibody 8F5 (antibody, human IgG1, V domains shown)
VH: EVQLQQSGPELVKPGASMKISCKASGYSFTDYTMNWVKQSHGKNLEWIGLINPFHGGTVSNQRFKVKATLTVDVSSNTAYMELLSLTSDDSAVYYCVRGDPVRHYYALAYWGQGTSVTVSS
VL: DIQMTQSPASLSASVGETVTITCGASENVYGTLNWYQRKQGKSPQLLIYGATNLADGMSSRFSGSGSGRQYSLKISSLHPDDVATYYCQNVLSAPYTFGGGTKLEII
notes: also called chimeric 8F5; chi 8F5

What was measured:
[1] = target: T1, CEACAM1 antigen (Sino Biological, Inc.); assay: ELISA, CEACAM1 coated 100 ng/well, antibody at 123.46 ng/ml
Description: (§1) Antigen CD66c (CEACAM6; Sino Biological, Inc.) and CEACAM1 antigen (Sino Biological, Inc.) were coated on a 96-well plate at a rate of 100 ng per well and then blocked. The primary antibody was diluted 3-fold from 10 ug/ml and bound at 37° C. for 1 hour. […] goat anti-Human Ig-HRP conjugate (Jackson ImmunoResearch) as a secondary antibody was diluted 1:10,000 and incubated at 37° C. for 30 minutes. The washing was carried out at three times between each step, and the TMB reaction was performed, stopped with 1N H₂SO₄ solution at the same amount of TMB solution (100 ul) and then OD value was measured at 450 nm.

[2] = target: T1, CEACAM1 antigen (Sino Biological, Inc.); assay: ELISA, CEACAM1 coated 100 ng/well, antibody at 0.51 ng/ml
Description: as §1

[3] = target: T2, Antigen CD66c (CEACAM6; Sino …); assay: ELISA, CEACAM6 coated 100 ng/well, antibody at 13.72 ng/ml
Description: as §1
(§2) As a result of the experiment, the binding affinities to CD66c antigen of the five kinds of recombinant humanized antibodies selected from among 96 kinds of recombinant humanized antibodies are shown in FIG. 4a, Table 12, FIG. 4b and Table 13. FIG. 4a and Table 12 show the binding capacity of the antibodies to CECACAM6 CD66c) antigen, and FIG. 4b and Table 13 are the results for the CEACAM1 (CD66a) antigen.

[4] = target: T2, Antigen CD66c (CEACAM6; Sino …); assay: ELISA, CEACAM6 coated 100 ng/well, antibody at 41.15 ng/ml
Description: as §1

[5] = target: T1, CEACAM1 antigen (Sino Biological, Inc.); assay: ELISA, CEACAM1 coated 100 ng/well, antibody at 370.37 ng/ml
Description: as §1

[6] = target: T1, CEACAM1 antigen (Sino Biological, Inc.); assay: ELISA, CEACAM1 coated 100 ng/well, antibody at 1.52 ng/ml
Description: as §1

[7] = target: T2, Antigen CD66c (CEACAM6; Sino …); assay: ELISA, CEACAM6 coated 100 ng/well, antibody at 0.17 ng/ml
Description: as §1, §2

[8] = target: T1, CEACAM1 antigen (Sino Biological, Inc.); assay: ELISA, CEACAM1 coated 100 ng/well, antibody at 1111.11 ng/ml
Description: as §1

[9] = target: T1, CEACAM1 antigen (Sino Biological, Inc.); assay: ELISA, CEACAM1 coated 100 ng/well, antibody at 4.57 ng/ml
Description: as §1

[10] = target: T2, Antigen CD66c (CEACAM6; Sino …); assay: ELISA, CEACAM6 coated 100 ng/well, antibody at 1.52 ng/ml
Description: as §1, §2

[11] = target: T1, CEACAM1 antigen (Sino Biological, Inc.); assay: ELISA, CEACAM1 coated 100 ng/well, antibody at 3333.33 ng/ml
Description: as §1

[12] = target: T2, Antigen CD66c (CEACAM6; Sino …); assay: ELISA, CEACAM6 coated 100 ng/well, antibody at 4.57 ng/ml
Description: as §1, §2

[13] = target: T2, Antigen CD66c (CEACAM6; Sino …); assay: ELISA, CEACAM6 coated 100 ng/well, antibody at 370.37 ng/ml
Description: as §1, §2

[14] = target: T2, Antigen CD66c (CEACAM6; Sino …); assay: ELISA, CEACAM6 coated 100 ng/well, antibody at 1111.11 ng/ml
Description: as §1, §2

[15] = target: T1, CEACAM1 antigen (Sino Biological, Inc.); assay: ELISA, CEACAM1 coated 100 ng/well, antibody at 41.15 ng/ml
Description: as §1

| Binder | OD 450 nm [1] [OD 450 nm] | OD 450 nm [2] [OD 450 nm] | OD 450 nm [3] [OD 450 nm] | OD 450 nm [4] [OD 450 nm] | OD 450 nm [5] [OD 450 nm] | OD 450 nm [6] [OD 450 nm] | OD 450 nm [7] [OD 450 nm] | OD 450 nm [8] [OD 450 nm] | OD 450 nm [9] [OD 450 nm] | OD 450 nm [10] [OD 450 nm] | OD 450 nm [11] [OD 450 nm] | OD 450 nm [12] [OD 450 nm] | OD 450 nm [13] [OD 450 nm] | OD 450 nm [14] [OD 450 nm] | OD 450 nm [15] [OD 450 nm] |
| --- | --- | --- | --- | --- | --- | --- | --- | --- | --- | --- | --- | --- | --- | --- | --- |
| B1 | 0.07 | 0.04 | 1.06 | 1.38 | 0.12 | 0.05 | 0.37 | 0.19 | 0.05 | 0.53 | 0.31 | 0.74 | 2.8 | 3.19 | 0.07 |
| B2 | 0.82 | 0.11 | 1.64 | 2.17 | 0.92 | 0.18 | 0.53 | 1.06 | 0.27 | 0.79 | 1.15 | 1.02 | 3.16 | 3.23 | 0.66 |
| B3 | 0.7 | 0.1 | 1.37 | 1.73 | 0.8 | 0.16 | 0.41 | 1.17 | 0.27 | 0.7 | 1.22 | 0.91 | 2.92 | 2.74 | 0.61 |
| B4 | 0.1 | 0.05 | 1.15 | 1.72 | 0.14 | 0.05 | 0.3 | 0.21 | 0.05 | 0.48 | 0.27 | 0.65 | 3.08 | 3.16 | 0.07 |
| B5 | 0.95 | 0.1 | 1.15 | 2.02 | 1.13 | 0.16 | 0.4 | 1.21 | 0.28 | 0.53 | 1.24 | 0.8 | 3.3 | 3.3 | 0.82 |
